Data as given in publication PMC8262854.
Like-named read-outs stand apart in the source and are kept apart here.

Assays:
[1] = target: Du172.17 gp140.664.R4 Env trimer (HIV-1 Du172.17 (clade C)); assay: crystal structure

With “BG505.T332N Env (pseudovirus glycan hole mutant P291T): P291T (glycan site added at N289)” the other (N-glycosylation at N289) was “decreases”.
With “BG505.T332N Env (pseudovirus glycan hole mutant S241N): S241N (glycan site added)” the other (N-glycosylation at N241) was “decreases”.
In the case of “BG505.T332N Env (pseudovirus glycan hole mutant T465N): T465N (glycan site added)”, the other (N-glycosylation at N465) is reported as “decreases”.
“Du172.17 gp140.664.R4 Env trimer (complex)” showed a stoichiometry N [1] of 3.
